# Values quoted from earlier work as cited in PMC3128382.
# Biological target: TbpA (Neisseria gonorrhoeae) (UniProt Q01996)
# Sequence of UniProt Q01996 (Q01996 25-915): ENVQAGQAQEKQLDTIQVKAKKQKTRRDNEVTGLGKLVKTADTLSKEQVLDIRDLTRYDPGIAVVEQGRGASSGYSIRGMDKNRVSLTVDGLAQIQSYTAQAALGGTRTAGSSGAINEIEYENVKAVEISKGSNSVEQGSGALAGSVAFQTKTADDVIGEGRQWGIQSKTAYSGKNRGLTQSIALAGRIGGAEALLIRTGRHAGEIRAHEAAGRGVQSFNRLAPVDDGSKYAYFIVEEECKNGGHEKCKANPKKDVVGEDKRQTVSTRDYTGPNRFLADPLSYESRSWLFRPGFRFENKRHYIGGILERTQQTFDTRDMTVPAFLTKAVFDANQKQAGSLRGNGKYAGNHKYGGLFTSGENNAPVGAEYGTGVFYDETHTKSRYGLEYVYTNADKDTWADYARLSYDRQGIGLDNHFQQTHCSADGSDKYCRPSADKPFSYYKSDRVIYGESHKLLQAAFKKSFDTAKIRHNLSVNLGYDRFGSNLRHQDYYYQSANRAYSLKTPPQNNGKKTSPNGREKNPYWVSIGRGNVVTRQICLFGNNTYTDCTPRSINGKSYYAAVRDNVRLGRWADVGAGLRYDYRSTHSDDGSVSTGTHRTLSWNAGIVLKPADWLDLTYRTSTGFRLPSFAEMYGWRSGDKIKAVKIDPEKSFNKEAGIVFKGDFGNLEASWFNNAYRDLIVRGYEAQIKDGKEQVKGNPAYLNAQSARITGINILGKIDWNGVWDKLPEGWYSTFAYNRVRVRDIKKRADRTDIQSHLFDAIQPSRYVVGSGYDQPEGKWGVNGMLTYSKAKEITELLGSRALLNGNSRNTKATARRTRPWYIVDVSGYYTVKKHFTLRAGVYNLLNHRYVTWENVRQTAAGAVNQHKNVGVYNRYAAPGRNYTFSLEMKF
substance,measurement,value
Transferrin (from UniProt P02787),Kd,0.01 µM
